19 molecules from US20060193821, “Aptamers to the human IL-12 cytokine family and their use as autoimmune disease therapeutics” (published 2006) can be followed below.

B1: ARC1622 (mixed)
RNA: ACAGGCAAGUAAUUGGGGAGUGCGGGCGGGGUGU
modifications: 2'-OMe C,U and G16,G17,G24,G25,G30,G31; other A,G deoxy; PS 6-7,7-8,8-9,10-11,11-12,14-15; 3'-idT [PS 6-7,7-8,8-9,10-11,11-12,14-15; 2'-OMe at 2,6,10,13,14,16,17,21,23,24,25,27,30,31,32,34; other A,G deoxy; 3'-inverted dT at 35]
B2: ARC1755 (mixed)
RNA: B1 RNA
modifications: 2'-OMe C,U and most purines; PS 2-3,6-7,11-12,14-15; 3'-idT [2'-OMe C2,C6,U10,U13,U14,U21,C23,C27,U32,U34 and most purines (positions not stated); PS 2-3,6-7,11-12,14-15 (N = PS linkage, left out); 3'-inverted dT 35]
B3: AMX84-C11 (ssRNA)
RNA: GGGAAAAGCGAAUCAUACACAAGAAUGGUCGGAAUCUCUGGCGCCACGCUGAGUAUAGACGGAAGCUCCGCCAGAGACCAACCGAGAA
modifications: 2'-F all C and U (rRfY)
B4: AMX91-B8 (ssRNA)
RNA: GGGAAAAGCGAAUCAUACACAAGAAUCCUGGCUUCGCAUAGUGUAUGGGUAGUACGACAGCGCGUGCUCCGCCAGAGACCAACCGAGAA
modifications: 2'-F all C and U (rRfY)
B5: AMX86-D11 (ssRNA)
RNA: GGGAAAAGCGAAUCAUACACAAGAUAGCGUCUAUGAUGGCGGAGAAGCAAGUGUAGCAUAACAGGCUCCGCCAGAGACCAACCGAGAA
modifications: 2'-F all C and U (rRfY)
B6: AMX86-G10 (ssRNA)
RNA: GGGAAAAGCGAAUCAUACACAAGAGUCAUGGCUUACAAUUGAAACAAGAGCUCGCGUGACACAUGCUCCGCCAGAGACCAACCGAGAA
modifications: 2'-F all C and U (rRfY)
B7: AMX86-D5 (ssRNA)
RNA: GGGAAAAGCGAAUCAUACACAAGAGAGGUAUGUGGUUUUGCGGAGCAACUCGUGUCAGCGGUCAGCUCCGCCAGAGACCAACCGAGAA
modifications: 2'-F all C and U (rRfY)
B8: AMX84-B10 (ssRNA)
RNA: GGGAAAAGCGAAUCAUACACAAGAAGUGCUUCAUGCGGCAAACUGCAUGACGUCGAAUAGAUAUGCUCCGCCAGAGACCAACCGAGAA
modifications: 2'-F all C and U (rRfY)
B9: AMX84-F11 (ssRNA)
RNA: GGGAAAAGCGAAUCAUACACAAGAUGUGCUUGAGUUAAAUCUCAUCGUCCCCGUUUGGGGAUAUGCUCCGCCAGAGACCAACCGAGAA
modifications: 2'-F all C and U (rRfY)
B10: AMX84-A10 (ssRNA)
RNA: GGGAAAAGCGAAUCAUACACAAGAAGUUUUUUGUGCUCUGAGUACUCAGCGUCCGUAAGGGAUAUGCUCCGCCAGAGACCAACCGAGAA
modifications: 2'-F all C and U (rRfY)
B11: AMX86-D6 (ssRNA)
RNA: GGGAAAAGCGAAUCAUACACAAGAUUAGGCGUCGUGACAAUAACUGGUCCACGAGCAUGUCAGUGCUCCGCCAGAGACCAACCGAGAA
modifications: 2'-F all C and U (rRfY)
B12: ARC1626 (mixed)
RNA: B1 RNA
modifications: 2'-OMe C,U and G16,G17,G24,G25,G30,G31; other A,G deoxy; multiple PS; 3'-idT [2'-OMe C2,C6,U10,U13,U14,G16,G17,U21,C23,G24,G25,C27,G30,G31,U32,U34; other A,G deoxy; PS 2-3,3-4,4-5,6-7,7-8,8-9,10-11,11-12,14-15,17-18,18-19,19-20,21-22,25-26,27-28,28-29,32-33 (N = PS linkage, left out); 3'-inverted dT 35]
B13: ARC1623 (mixed)
RNA: B1 RNA
modifications: 2'-OMe C,U and G16,G17,G24,G25,G30,G31; other A,G deoxy; PS 17-18,18-19,19-20,21-22; 3'-idT [2'-OMe C2,C6,U10,U13,U14,G16,G17,U21,C23,G24,G25,C27,G30,G31,U32,U34; other A,G deoxy; PS 17-18,18-19,19-20,21-22 (N = PS linkage, left out); 3'-inverted dT 35]
B14: ARC1625 (mixed)
RNA: B1 RNA
modifications: 2'-OMe C,U and G16,G17,G24,G25,G30,G31; other A,G deoxy; PS 32-33; 3'-idT [2'-OMe C2,C6,U10,U13,U14,G16,G17,U21,C23,G24,G25,C27,G30,G31,U32,U34; other A,G deoxy; PS 32-33 (N = PS linkage, left out); 3'-inverted dT 35]

T2 sequence (P29459 23-219, chain 1 of 2): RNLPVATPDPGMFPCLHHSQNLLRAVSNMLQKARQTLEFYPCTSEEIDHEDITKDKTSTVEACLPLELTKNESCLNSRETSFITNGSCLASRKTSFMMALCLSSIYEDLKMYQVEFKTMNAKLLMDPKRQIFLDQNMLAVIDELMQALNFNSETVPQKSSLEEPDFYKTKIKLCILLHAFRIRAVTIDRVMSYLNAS
T2 sequence (P29460 23-328, chain 2 of 2): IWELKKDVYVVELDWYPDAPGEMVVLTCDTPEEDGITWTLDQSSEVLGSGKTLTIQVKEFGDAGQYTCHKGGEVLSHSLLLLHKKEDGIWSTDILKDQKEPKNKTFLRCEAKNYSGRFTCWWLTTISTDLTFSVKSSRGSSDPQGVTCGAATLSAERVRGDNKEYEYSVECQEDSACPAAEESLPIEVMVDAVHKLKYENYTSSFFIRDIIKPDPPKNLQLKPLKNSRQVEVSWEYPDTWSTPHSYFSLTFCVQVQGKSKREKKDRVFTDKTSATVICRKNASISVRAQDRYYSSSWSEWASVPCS
T1 sequence (Q9NPF7 20-189, chain 1 of 2): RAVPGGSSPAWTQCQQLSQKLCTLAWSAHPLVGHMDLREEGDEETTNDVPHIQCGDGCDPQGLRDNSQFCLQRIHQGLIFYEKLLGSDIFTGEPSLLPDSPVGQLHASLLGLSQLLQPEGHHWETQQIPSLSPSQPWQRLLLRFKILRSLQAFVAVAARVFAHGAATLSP
T1 sequence (P29460 23-328, chain 2 of 2): as the sequence (P29460 23-328, chain 2 of 2) above

One data set addresses T1, IL-23 (human, p19/p40 heterodimer) (Homo sapiens, UniProt Q9NPF7;P29460 SEQ:20-189,SEQ:23-328). Kind of data set: filter; DPBS Ca Mg. The conditions noted are these: tags: R&D Systems, carrier free. The procedure:
The dot blot binding assay previously described was used to characterize the relative potency of the majority of the aptamers synthesized. For KD determination, chemically synthesized aptamers were purified using denaturing polyacrylamide gel electrophoresis, 5′end labeled with γ-³²P ATP and were tested for direct binding to full human IL-23. An 8 point protein titration was used in the dot blot binding assay (either {100 nM, 30 nM, 10 nM, 3 nM, 1 nM, 300 pM, 100 pM, 0 pM} or {10 nM, 3 nM, 1 nM, 300 pM, 100 pM, 30 pM, 10 pM, 0 pM}) in Dulbecco's PBS (with Mg⁺⁺ and Ca⁺⁺) with 0.1 mg/mL BSA. KD values were calculated by fitting the equation y=(max/(1+K/protein))+yint using KaleidaGraph (KaleidaGraph v. 3.51, Synergy Software). Sequences of the ARC979 derivatives synthesized, purified and assayed for binding to IL-23 as well as the results of the protein binding characterization are tabulated below in Tables 29 and 30.
B1: the Kd was found to be 0.3 nM. Take B2: the equilibrium dissociation constant (Kd) is 0.8 nM.

For another data set, the target named is T2, IL-12 (human, p35/p40 heterodimer) (Homo sapiens, UniProt P29459;P29460 SEQ:57-253,SEQ:23-328). Description: filter; 1X SHMCK, 0.1 mg/mL tRNA, RT. The conditions noted are these: label: 5'-32P. The procedure:
(§1) Monitoring Progress of rRfY Selection. Dot blot binding assays were performed throughout the selections to monitor the protein binding affinity of the pools. Trace ³²P-labeled RNA was combined with a dilution series of h-IL-23 and incubated at room temperature for 30 minutes in 1×SHMCK (20 mM Hepes, 120 mM NaCl, 5 mM KCl, 1 mM MgCl₂, 1 mM CaCl₂, pH 7.4) plus 0.1 mg/mL tRNA for a final volume of 20 μL. The binding reactions were analyzed by nitrocellulose filtration using a Minifold I dot-blot, 96-well vacuum filtration manifold (Schleicher & Schuell, Keene, N.H.). A three-layer filtration medium was used, consisting (from top to bottom) of Protran nitrocellulose (Schleicher & Schuell), Hybond-P nylon (Amersham Biosciences) and GB002 gel blot paper (Schleicher & Schuell). RNA that is bound to protein is captured on the nitrocellulose filter, whereas the non-protein bound RNA is captured on the nylon filter. The gel blot paper was included simply as a supporting medium for the other filters. Following filtration, the filter layers were separated, dried and exposed on a phosphor screen (Amersham Biosciences, Piscataway, N.J.) and quantified using a Storm 860 Phosphorimager® blot imaging system (Amersham Biosciences).
(§2) When a significant positive ratio of binding of RNA in the presence of h-IL-23 versus in the absence of h-IL-23 was seen, the pools were cloned using a TOPO TA cloning kit (Invitrogen, Carlsbad, Calif.) according to the manufacturer's instructions. For the h-IL-23 and X-IL-23 selections, the Round 8 pool templates were cloned, and 32 individual clones from each selections were assayed in a 1-point dot blot screen (+/−75 nM h-IL-23, as well as a separate screen at +/−75 nM h-IL-12). For the PN-IL-23 selection, the Round 10 pool was cloned and sequenced, and 8 unique clones were assayed for protein binding in a 1-point dot blot screen (+/−200 nM h-IL-23 and a separate screen at +/−200 nM h-IL-12). Subsequently, the Round 10 PN-IL-23 pool was re-cloned for further sequences, as well as the R12 PN-IL-23 pool, and the clones were assayed for protein binding in a 1 point do blot screen (+/−100 nM h-IL-23 or +/−200 nM h-IL-12).
As to B3, the Kd was 286 nM. Same read-out and setting: for B4 the value was 409 nM; for B5, 114 nM. Still for that read-out and setting: for B6 the value was 356 nM.

The target in the next data set is T2, IL-12 (human, p35/p40 heterodimer). Description: filter; no significant binding; 1X SHMCK, 0.1 mg/mL tRNA. The note with it: label: 5'-32P. The procedure:
as §1, §2
On to B7, for which the binding result is given as “no binding”. With B8, the binding result was “no binding”.

As for B9, the binding result is recorded as “no binding”. Same read-out and setting: for B10 the value was “no binding”. On the same count and under the same terms, for B11 the value was “no binding”.

A further data set deals with T1, IL-23 (human, p19/p40 heterodimer). Kind of data set: cell_activity; Pathscan pSTAT3. The conditions noted are these: tags: R&D Systems, carrier free. The procedure:
Inhibition of IL-23-induced STAT3 phosphorylation was measured using the Pathscan® Phospho-STAT3 (Tyr705) Sandwich ELISA Kit (Cell Signaling Technology, Beverly, Mass.).
Similar to the TransAM™ Assay method previously described, the Pathscan® Phospho-STAT3 (Tyr705) Sandwich ELISA Kit detects endogenous levels of Phospho-STAT3 (Tyr705) protein by using a STAT3 rabbit monoclonal antibody which has been coated onto the wells of a 96-well plate. After incubation with cell lysates, both nonphospho- and phospho-STAT3 proteins are captured by the coated antibody. A phospho-STAT3 mouse monoclonal antibody is added to detect the captured phospho-STAT3 protein, and an HRP-linked anti-mouse antibody is then used to recognize the bound detection antibody. HRP substrate, TMB, is added to develop color, and the magnitude of optical density for this developed color is proportional to the quantity of phospho-STAT3 protein.
PHA Blasts were isolated and prepared as described above and treated with hIL-23 at a final constant concentration of 6 ng/mL (R&D Systems, Minneapolis, Minn.) to induce STAT3 activation, instead of using 3 ng/mL as previously described with the TransAM™ assay. Clones were screened by using a 6-point […] titration from 0 to 700 nM in 3 fold dilutions in combination with a constant IL-23 concentration of 6 ng/mL of IL-23 (R&D Systems, Minneapolis, Minn.) to induce STAT3 activation, instead of using 3 ng/mL as previously described with the TransAM™ assay. Lysates of treated cells were prepared using the buffers provided by the Pathscan kit, and the assay was run according to the manufacturer's instructions. IC₅₀s for the full length clones were calculated from the dose response curves.
Take B1: the half-maximal inhibitory concentration (IC50) turned out to be 9 nM. The same measure, in the same setting: for B12 the value was 12 nM; for B2, 68 nM. Same read-out and setting: for B13 the value was 5 nM; for B14, 4 nM.

Another data set shares this target. Description: filter; 1X SHMCK, 1 mM Mg, 1 mM Ca, 0.1 mg/mL tRNA, RT. The conditions noted are these: tags: R&D Systems, carrier free; label: 5'-32P. The procedure:
as §1, §2
Turning to B3, the Kd worked out at 15.5 nM. B7 had an equilibrium dissociation constant (Kd) of 27.4 nM. In the case of B8, the Kd came out at 21.8 nM. In turn, B4 yielded a Kd of 17.6 nM. As for B9, the Kd was found to be 16.6 nM. The same measure, in the same setting: for B5 the value was 199 nM; for B10, 22.3 nM. On to B11, for which the Kd came out at 25 nM. Still for that read-out and setting: for B6 the value was 73.7 nM.

A further data set has the same target. Kind of data set: filter; no binding. The note with it: tags: R&D Systems, carrier free. The source says:
The fraction aptamer bound vs. [IL-23] was used to calculate the KD by fitting the following equation to the data: Fraction aptamer bound=amplitude*([IL-23]/(KD+[IL-23]))+background binding.
Table 25 below summarizes the minimized sequences and the parent clone from which they were derived, and Table 26 summarizes the binding characterization from direct binding assays (+/−tRNA) and competition binding assays for the minimized constructs tested.
Take GGCGGUACGGGGAGUGUGGGUUGGG (mixed, deoxy A,G; 2'-OMe C,U) [ARC1171]: the binding result was “no binding”. Still for that read-out and setting: for ACAGGCAAGGUAAUUGGGUAGUGAGGGCUGGGUGU (mixed, deoxy A,G; 2'-OMe C,U) [ARC896] the value was “no binding”. Same read-out and setting: for GGCGGUACGGGGGGAGUGGGCUGGG (mixed, deoxy A,G; 2'-OMe C,U) [ARC1170] the value was “no binding”.

Still in this data set, the particulars now being: tags: R&D Systems, carrier free; label: 5'-32P.
Turning to GGCAAGGUAAUUGGGAAGUGUGGGCUGGG (mixed, 2'-deoxy A and G, 2'-OMe C and U (dRmY)) [ARC894], the binding result is reported as “no binding”.

On to GGCGGUUACGGGGGAUGCGGGUGGG (mixed, 2'-deoxy A and G, 2'-OMe C and U (dRmY)) [ARC981], for which the binding result is reported as “no binding”.
